Legend:
[1] = molecular target: T1, NaeI restriction endonuclease (recombinant, crude extract of NEB#777) T2A (Nocardia aerocolonigenes) (UniProt P50187); assay: cleavage_in_vitro; conditions: PstI-codigested pBR322, NEBuffer 1, 37 C, 1 h; after overnight IPTG induction
T1 sequence: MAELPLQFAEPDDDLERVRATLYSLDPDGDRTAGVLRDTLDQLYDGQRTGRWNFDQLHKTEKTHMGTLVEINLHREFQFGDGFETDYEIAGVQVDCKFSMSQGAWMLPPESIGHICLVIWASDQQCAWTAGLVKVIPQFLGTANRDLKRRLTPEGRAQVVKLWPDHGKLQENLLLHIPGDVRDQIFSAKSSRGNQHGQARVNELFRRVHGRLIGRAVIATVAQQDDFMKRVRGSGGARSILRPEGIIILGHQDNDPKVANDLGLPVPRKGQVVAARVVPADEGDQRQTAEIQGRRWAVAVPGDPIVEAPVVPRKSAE

[2] = molecular target: T2, NaeI restriction endonuclease (recombinant, from pCTnaeIR16-1) T2A (Nocardia aerocolonigenes) (UniProt P50187); assay: cleavage_in_vitro; conditions: 60 U, 4 h, 37 C, 10 mM MgCl2; nonspecific nicking test
T2 sequence: T1 sequence

Row | Substance | activity [1] | activity (% RFI converted to RFII) [2]
1 | pBR322 plasmid DNA | 77000 U/g cells | –
2 | phiX174 RFI DNA | – | < 5
